In patent US20220135638A1 (Takeda / Millennium, published 2022):
Numbered stars: 1 amine (or outer) side, 2 acyl side, 3 side chain; on linkers, the order of the positions; unused ones are H or OH. Square brackets hold non-standard residues; d marks the D form. Primed or numbered codes have the meaning given here. Side chains are listed from the residue outwards. Ends that are not written are not given here. * marks the point of attachment. C20 diacid = O=C(O)CCCCCCCCCCCCCCCCCCC(=O)*; C18 diacid = O=C(O)CCCCCCCCCCCCCCCCC(=O)*; C16 diacid = O=C(O)CCCCCCCCCCCCCCC(=O)*; γGlu = O=C(O)[C@H](CCC(=O)[*:2])N[*:1]; Iva = CC[C@](C)(N)C(=O)O; PEG3′ = not defined here; Abu = CC[C@H](N)C(=O)O; Aib = CC(C)(N)C(=O)O

Assays:
[1] = biological target: T1, full-length human GIPR (GenBank NM_000164) with an N-terminal FLAG tag on HEK-293T cells (human), P48546; assay: cell-based or functional assay
T1 chain: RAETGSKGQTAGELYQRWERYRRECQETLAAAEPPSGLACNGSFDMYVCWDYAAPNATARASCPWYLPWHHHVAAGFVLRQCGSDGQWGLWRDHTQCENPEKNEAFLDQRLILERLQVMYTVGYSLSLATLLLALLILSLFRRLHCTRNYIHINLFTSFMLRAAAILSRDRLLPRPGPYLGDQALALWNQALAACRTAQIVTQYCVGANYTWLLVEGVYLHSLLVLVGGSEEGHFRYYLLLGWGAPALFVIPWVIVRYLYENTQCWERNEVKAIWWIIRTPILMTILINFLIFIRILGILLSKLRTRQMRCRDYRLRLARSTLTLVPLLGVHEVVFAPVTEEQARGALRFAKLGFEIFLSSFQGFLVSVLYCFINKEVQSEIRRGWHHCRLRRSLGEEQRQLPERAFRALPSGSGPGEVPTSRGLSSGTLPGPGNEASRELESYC

[2] = biological target: T2, full-length human GLP-1R (GenBank NM_002062) with an N-terminal FLAG tag on HEK-293T cells (human), P43220; assay: cell-based or functional assay
T2 chain: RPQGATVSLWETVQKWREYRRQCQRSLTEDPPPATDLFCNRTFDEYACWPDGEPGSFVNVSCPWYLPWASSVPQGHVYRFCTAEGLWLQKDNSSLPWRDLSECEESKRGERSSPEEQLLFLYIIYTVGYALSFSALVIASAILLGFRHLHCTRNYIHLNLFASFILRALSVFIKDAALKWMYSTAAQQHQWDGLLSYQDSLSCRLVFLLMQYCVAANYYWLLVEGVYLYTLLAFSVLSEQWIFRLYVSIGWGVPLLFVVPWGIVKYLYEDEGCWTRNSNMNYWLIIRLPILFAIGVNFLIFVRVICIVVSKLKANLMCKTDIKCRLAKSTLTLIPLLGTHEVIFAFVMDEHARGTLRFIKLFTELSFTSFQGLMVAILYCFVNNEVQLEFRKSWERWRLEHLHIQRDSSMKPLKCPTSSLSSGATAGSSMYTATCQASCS

With Y[Aib]EGTFISDYSIALDR[Aib]HQ[Aib]NFVNW[Iva]LAQRK([γGlu-γGlu-C18 diacid])SSGAPPPS (ends and bridges not checked) [Compound No. 547] the GIP EC50(pM) [1] was 0.41 pM and the GLP EC50 [2] was over 1 µM.

In the case of Y[Aib]EGTFISDYSIALDR[Aib]HQ[Aib]NFVNW[Iva]LAQRPSSGAPPK([γGlu-γGlu-C18 diacid])S (ends and bridges not checked) [Compound No. 554], the GIP EC50(pM) [1] is reported as 0.82 pM and the GLP EC50 [2] is reported as over 1 µM.

Y[Aib]EGTFISDYSIALDR[Aib]HQ[Aib]NFVNW[Iva]LAQRPSK([γGlu-γGlu-C18 diacid])GAPPPS (ends and bridges not checked) [Compound No. 549] showed a GIP EC50(pM) [1] of 0.85 pM and a GLP EC50 [2] of over 1 µM.

Binder Y[Aib]EGTFISDYSIALDR[Aib]HQ[Aib]NFVNW[Iva]LAQRPSSK([γGlu-γGlu-C18 diacid])APPPS (ends and bridges not checked) [Compound No. 550] has a GIP EC50(pM) [1] of 0.83 pM and a GLP EC50 [2] of over 1 µM.

In the case of Y[Aib]EGTFISDYSIALDR[Aib]HQ[Aib]NFVNW[Iva]LAQRPSSGK([γGlu-γGlu-C18 diacid])PPPS (ends and bridges not checked) [Compound No. 551], the GIP EC50(pM) [1] is reported as 0.6 pM and the GLP EC50 [2] is reported as over 1 µM.

For Y[Aib]EGTFISDYSIALDR[Aib]HQ[Aib]NFVNW[Iva]LAQRPK([PEG3′-PEG3′-C16 diacid])SGAPPPSR (ends and bridges not checked) [Compound No 892], the GIP EC50(pM) [1] was 1.7 pM and the GLP EC50 [2] was 0.151 µM.

In the case of Y[Aib]EGTFISDYSIALDR[Aib]HQ[Aib]NFVNW[Iva]LAQRPSK([Abu-γGlu-C18 diacid])GAPPPS (ends and bridges not checked) [Compound No. 539], the GIP EC50(pM) [1] is reported as 2.66 pM and the GLP EC50 [2] is reported as over 1 µM.

Y[Aib]EGTFISDYSIALDR[Aib]HQ[Aib]NFVNW[Iva]LAQRK([PEG3′-PEG3′-C18 diacid])SSGAPPPSR (ends and bridges not checked) [Compound No 912] showed a GIP EC50(pM) [1] of 0.7 pM and a GLP EC50 [2] of 0.105 µM.

Y[Aib]EGTFISDYSIALDR[Aib]HQ[Aib]NFVNW[Iva]LAQRPSSGAK([γGlu-γGlu-C18 diacid])PPS (ends and bridges not checked) [Compound No. 552] gave a GIP EC50(pM) [1] of 1.12 pM and a GLP EC50 [2] of over 1 µM.

In the case of Y[Aib]EGTFISDYSIALDR[Aib]HQ[Aib]NFVNW[Iva]LAQRPSSGAPPPK([γGlu-γGlu-C18 diacid]) (ends and bridges not checked) [Compound No. 555], the GIP EC50(pM) [1] is reported as 0.97 pM and the GLP EC50 [2] is reported as over 1 µM.

Work on Y[Aib]EGTFISDYSIALDR[Aib]HQ[Aib]NFVNW[Iva]LAQRPK([Abu-γGlu-C18 diacid])SGAPPPS (ends and bridges not checked) [Compound No. 538] yielded a GIP EC50(pM) [1] of 1.8 pM and a GLP EC50 [2] of over 1 µM.

Y[Aib]EGTFISDYSIALDR[Aib]HQ[Aib]NFVNW[Iva]LAQRK([PEG3′-PEG3′-C16 diacid])SSGAPPPSR (ends and bridges not checked) [Compound No 911] gave a GIP EC50(pM) [1] of 0.8 pM and a GLP EC50 [2] of 0.0933 µM.

Y[Aib]EGTFISDYSIALDR[Aib]HQ[Aib]NFVNW[Iva]LAQRPK([PEG3′-PEG3′-C18 diacid])SGAPPPSR (ends and bridges not checked) [Compound No 893] gave a GIP EC50(pM) [1] of 2.3 pM and a GLP EC50 [2] of 0.0021 µM.

Y[Aib]EGTFISDYSIALDR[Aib]HQ[Aib]NFVNW[Iva]LAQRPSSGAPK([γGlu-γGlu-C18 diacid])PS (ends and bridges not checked) [Compound No. 553] showed a GIP EC50(pM) [1] of 1.08 pM and a GLP EC50 [2] of over 1 µM.

Work on Y[Aib]EGTFISDYSIALDR[Aib]HQ[Aib]NFVNW[Iva]LAQRPSSGAK([Abu-γGlu-C18 diacid])PPS (ends and bridges not checked) [Compound No. 542] yielded a GIP EC50(pM) [1] of 1.21 pM and a GLP EC50 [2] of over 1 µM.

Binder Y[Aib]EGTFISDYSIALDR[Aib]HQ[Aib]NFVNW[Iva]LAQRPSSGAPPK([Abu-γGlu-C18 diacid])S (ends and bridges not checked) [Compound No. 544] has a GIP EC50(pM) [1] of 0.94 pM and a GLP EC50 [2] of over 1 µM.

Binder Y[Aib]EGTFISDYSIALDR[Aib]HQ[Aib]NFVNW[Iva]LAQRPSK([PEG3′-PEG3′-C16 diacid])GAPPPSR (ends and bridges not checked) [Compound No 898] has a GIP EC50(pM) [1] of 0.6 pM and a GLP EC50 [2] of 0.0741 µM.

In the case of Y[Aib]EGTFISDYSIALDR[Aib]HQ[Aib]NFVNW[Iva]LAQRPSSGAPPPK([Abu-γGlu-C18 diacid]) (ends and bridges not checked) [Compound No. 545], the GIP EC50(pM) [1] is reported as 0.43 pM and the GLP EC50 [2] is reported as over 1 µM.

Y[Aib]EGTFISDYSIALDR[Aib]HQ[Aib]NFVNW[Iva]LAQRK([Abu-γGlu-C18 diacid])SSGAPPPS (ends and bridges not checked) [Compound No. 537] was tested, and the GIP EC50(pM) [1] was 1.32 pM and the GLP EC50 [2] was over 1 µM.

Work on Y[Aib]EGTFISDYSIALDR[Aib]HQ[Aib]NFVNW[Iva]LAQRPSSK([Abu-γGlu-C18 diacid])APPPS (ends and bridges not checked) [Compound No. 540] yielded a GIP EC50(pM) [1] of 3.01 pM and a GLP EC50 [2] of over 1 µM.

Binder Y[Aib]EGTFISDYSIALDR[Aib]HQ[Aib]NFVNW[Iva]LAQRPSSGAPK([Abu-γGlu-C18 diacid])PS (ends and bridges not checked) [Compound No. 543] has a GIP EC50(pM) [1] of 0.72 pM and a GLP EC50 [2] of over 1 µM.

In the case of Y[Aib]EGTFISDYSIALDR[Aib]HQ[Aib]NFVNW[Iva]LAQRPK([PEG3′-PEG3′-C20 diacid])SGAPPPSR (ends and bridges not checked) [Compound No 894], the GIP EC50(pM) [1] is reported as 1.9 pM and the GLP EC50 [2] is reported as 0.794 µM.

In the case of Y[Aib]EGTFISDYSIALDR[Aib]HQ[Aib]NFVNW[Iva]LAQRPSSGK([Abu-γGlu-C18 diacid])PPPS (ends and bridges not checked) [Compound No. 541], the GIP EC50(pM) [1] is reported as 0.73 pM and the GLP EC50 [2] is reported as over 1 µM.

With Y[Aib]EGTFISDYSIALDR[Aib]HQ[Aib]NFVNW[Iva]LAQRPK([γGlu-γGlu-C18 diacid])SGAPPPS (ends and bridges not checked) [Compound No. 548] the GIP EC50(pM) [1] was 0.81 pM and the GLP EC50 [2] was over 1 µM.
